From US20230080534A1, “SEMG2 ANTIBODY AND USE THEREOF” (SHANGHAI BIOTROY BIOTECHNIQUE CO., LTD., priority 2020, published 2023)

Tests used:
[1] = system: LOVO human colorectal cancer cells; test: Tumor cell killing by activated PBMC, caspase-3/7 apoptosis; assay type: cell-based; details: SEMG2-positive, co-culture with activated PBMC 10:1
Description: (§1) To test the above hypothesis, the effects of different epitope-specific antibodies on tumor cell killing by activated PBMC were compared. Specifically, A375 human melanoma and LOVO human colorectal cancer cells highly expressing SEMG2 were seeded in 96-well plate. Human peripheral blood mononuclear cells (PBMC; #70025, Stem Cell) were activated with 100 ng/mL of CD3 antibody, 100 ng/mL, of CD28 antibody, and 1.0 ng/mL of IL2 (#317303; #302913; #589102, BioLegend), respectively, and co-cultured with the above tumor cells at a ratio of 10:1 in presence of fluorescent caspase-3/7 substrate (#4440, Essen Bioscience). After 1.0 hours, cells were observed under fluorescence microscope.
(§2) To verify the above hypothesis, tumor cells with high SEMG2 expression (A375, LOVO) and SEMG2-negative tumor cells (DLD1, NCM460 and NCI-H1975) were selected. Different antibodies (irrelevant mouse IgG antibodies, MM02 or MM05 antibodies) were added during the PBMC killing experiments for the tumor cells.
(§3) To verify the effect of the human antibodies on the function of activated PBMC on tumor cell killing, A375 and LOVO cells were co-cultured with activated PBMC, and H88-93, H88-96, or H88-67 antibody was added at the same time, and the apoptosis ratio of tumor cells were detected.

[2] = system: A375 human melanoma cells; test: as above; assay type: cell-based; details: A375, SEMG2-positive, co-culture with activated PBMC 10:1
Description: as §1, §2, §3

SEMG2(497-509) fragment = biological target: T1, SEMG2(497-509) fragment (Homo sapiens, UniProt Q02383); test: ELISA binding of antibodies to SEMG2(497-509) epitope
T1 construct: SEMG2(497-509) fragment and SEMG2(563-574) fragment were immobilized on the ELISA plate; made in house; host or cells: chemical synthesis
Description: Specifically, SEMG2 full-length protein (1-582), SEMG2(354-403) fragment, SEMG2(442-453) fragment, SEMG2(497-509) fragment and SEMG2(563-574) fragment were immobilized on the ELISA plate, and the same concentration of antibodies (MM02, MM05, MM07, MM08, MM13, MM14, HPA042767 and HPA042835) were added. Anti-mouse or anti-rabbit secondary antibodies were then used to detect the corresponding bound antibodies. MM02, MM05, MM07, MM08, MM13, and MM14 all bound to SEMG2(497509) epitope, HPA042767 bound to SEMG2 (354-403) epitope, and HPA042835 bound to […], while none of the antibodies bound to SEMG2 (442-453) control fragment.
Specifically, the preparation of polypeptide antigens and the screening of human natural antibody library were firstly performed. The SEMG2(497-509) polypeptide was synthesized and coupled to BSA and KLH, respectively, and screened in a fully human phage display antibody library. ELISA was used to select clones that bind to antigenic epitopes for preliminary screening. Different unique sequences were obtained after sequencing single colonies, sorted according to affinity sorting, and full-length antibodies were constructed from antigen-binding fragments (Fab) with relatively high affinity. The binding ability and blocking function tests were performed after purification, that is, the effect of the antibody on binding between SEMG2 and CD27 was determined by the ELISA experiment.

[3] = biological target: T2, binding between SEMG2 and CD27 (Homo sapiens, UniProt Q02383); test: Antibody blocking ELISA of SEMG2 binding to CD27-Fc; details: antibody 10 μg/mL
T2 sequence (Q02383 24-582): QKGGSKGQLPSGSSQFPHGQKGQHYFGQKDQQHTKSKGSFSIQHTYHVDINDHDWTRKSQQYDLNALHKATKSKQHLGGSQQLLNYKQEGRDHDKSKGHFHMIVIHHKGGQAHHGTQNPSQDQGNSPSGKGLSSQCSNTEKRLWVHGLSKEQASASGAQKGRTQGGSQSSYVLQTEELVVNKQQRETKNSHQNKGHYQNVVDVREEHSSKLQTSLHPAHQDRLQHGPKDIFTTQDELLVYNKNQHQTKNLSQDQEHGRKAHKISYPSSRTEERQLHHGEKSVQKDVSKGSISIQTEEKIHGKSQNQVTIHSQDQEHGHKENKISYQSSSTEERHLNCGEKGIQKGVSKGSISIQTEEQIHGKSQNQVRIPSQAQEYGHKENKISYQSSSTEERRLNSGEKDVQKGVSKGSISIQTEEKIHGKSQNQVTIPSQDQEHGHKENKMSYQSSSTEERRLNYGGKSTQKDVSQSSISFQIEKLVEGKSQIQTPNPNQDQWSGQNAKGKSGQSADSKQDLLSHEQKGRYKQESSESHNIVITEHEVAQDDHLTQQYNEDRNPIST
From the text: Because SEMG2 (497-509) sequence fragment is the key epitope of SEMG2 binding to CD27, and has a relatively short sequence, so SEMG2 (497-509) was used as an immunogen to prepare antibodies, which is theoretically easier to obtain functional antibody molecules with the function of blocking the binding between SEMG2 and CD27 than using full-length SEMG2 to prepare antibodies. For direct comparison, the differences in effective concentration of producing antibody by the two methods were verified using ELISA in the examples. Antibodies produced with SEMG2 (497-509) as immunogen and antibodies produced with full-length SEMG2 were added into the enzyme-linked immunosorbent assay (ELISA) reaction system at different concentrations (10^-2, 10^-1, 10^0, 10^1, 10^2, 10^3, 10^4 μg/mL), and the ELISA binding values were measured. The specific steps of enzyme-linked immunosorbent assay are as follows: (1) Dissolve SEMG2 protein antigen with 50 mM carbonate coating buffer (pH 9.6) to make the antigen concentration 10 μg/mL, and add into 96-well ELISA plate (purchased from Corning) at 100 μL/well, place at 4° C. overnight. (2) After discarding the coating solution on the next day, wash with PBST for three times, add 150 μL of 1% BSA to each well, and block for 2 hours at 37° C. […] (4) After washing for 5 times with PBST, add 100 of diluted HRP-labeled anti-human Fe secondary antibody, and incubate at 37° C. for 1 hour. (5) After washing with PBST for 5 times, 20 min after developing with chromogenic agent, the A450 absorption value was read using the microplate reader.
The SEMG2 (497-509) sequence was used to synthesize a polypeptide and coupled to a VLP carrier for immunization; HEK293 cells were used to express the full-length SEMG2 protein, and the purity was tested to reach 92%, and the binding activity of SEMG2 protein to CD27 was verified by ELISA. The protein and polypeptide antigens were used to immunize 10 mice respectively, and multiple immunizations were performed to enhance the effect: (1) The first immunization, 50 μg/mice of antigen, multiple subcutaneous injections together with Freund's complete adjuvant, with an interval of 3 weeks; (2) the second immunization; the same dosage and route as above, with incomplete Freund's adjuvant, and with an interval of 3 weeks; (3) the third immunization, the same dosage as above, without adjuvant, intraperitoneal injection with an interval of 3 weeks; (4) the booster immunization, the dose is 50 μg, intraperitoneal injection. 3 days after the last injection, blood was collected to measure its titer and the immune effect, and mice with higher titers were selected for hybridoma fusion screening. After subcloning, the binding of the monoclonal antibodies to the target antigens was detected by ELISA, and the function of different monoclonal antibodies in blocking the binding between SEMG2 and CD27 was measured by ELISA.
First, SEMG2(497-509) epitope-specific antibodies (for example, MM02, MM05) were compared with other epitope-specific antibodies (for example, HPA042767) for their function in blocking binding between SEMG2 and CD27 at different concentration ranges. […] The blocking function of different antibodies (irrelative mouse IgG, MM02, MM05, HPA042767) on binding between SEMG2 and CD27 was analyzed by the ELISA experiment as described in Example 11.
Further, the effects of different antibodies on the binding between SEMG2 and CD27 were compared under the condition of the same antibody concentration. In the ELISA, the same concentration (10 μg/mL) of antibody was used, and the strength of the binding between SEMG2 and CD27 was measured. […]

SEMG2 = biological target: T3, SEMG2 (Homo sapiens, UniProt Q02383); test: Competition ELISA of fully human antibody with murine antibodies for SEMG2; assay type: binding; details: concentration gradient of fully human antibody mixed with murine antibody
T3 sequence (Q02383 24-582): T2 sequence (Q02383 24-582)
Description: The binding abilities of fully human antibodies and murine antibodies to SEMG2 were tested, that is, murine antibodies MM02 and MM05 and concentration gradient diluted filly human antibodies H88-93 were mixed and added as primary antibodies in a 96-well microplate coated with SEMG2. Murine monoclonal antibody bound to SEMG2 was measured using anti-mouse HRP secondary antibody. The blocking percentage is calculated according to the following formula:
Blocking percentage=[1−(A450 of experimental antibody group-Blank control)/(A450 of positive control antibody−A450 of empty control)]×100%

B1: H88-93: fully human antibody from phage library against SEMG2(497-509), VH SEQ ID NO:55, VL SEQ ID NO:58 (antibody, V domains shown)
VH: QITLKESGPTLVKPTQTLTLTCNFSGFSLTTSGVGVAWIRQPPGKALEWLALIYWDDDQRYSPSLKSRLSVTKHTSKDQVVLTMTNVGPVDTATYYCAHLSYGPGWGYYMDVWGNGTMVTVSS
VL: EIVLTQSPGTLSLSPGERASLSCRASQSVRNNYLAWYQQKPGQAPRLLIFGASNRATGIPDTFSGSGSGTDFTLTISRLEPEDFAVYYCQQYGHSPITFGQGTRLEIK
modifications: UNSURE (1)..(123) VH; UNSURE (1)..(108) VL
apoptosis tumor cell ratio / killing by activated PBMC [1]: significantly promote the killing | apoptosis tumor cell ratio / killing by activated PBMC [2]: significantly promote the killing | binding to SEMG2(497-509) epitope (SEMG2(497-509) fragment): bind | effect on the binding between SEMG2 and CD27 [3]: inhibited the binding | competition with MM02 and MM05 for binding to SEMG2 (SEMG2): competes
